Blank lines part the entries; values can stand above or below the substance they belong to.
Assays:
[1] = molecular target: Recombinant human FcγRIIIa-V158 (human) (UniProt P08637); assay: SPR Carterra LSA; Fc on protein AG, hFcγRIIIa-V158 analyte; 1:1 kinetic fit
[2] = molecular target: Recombinant human FcγRIIIa-V158 (human) (UniProt P08637); assay: SPR Biacore T200; antibody on Protein A, FcγRIIIa-V158 analyte; 1:1 fit
[3] = molecular target: biotinylated recombinant human FcRn (human) (UniProt P55899); assay: FcRn affinity chromatography, pH gradient 5.5-9.5
[4] = molecular target: biotinylated recombinant human FcRn (human) (UniProt P55899); assay: SPR Biacore T200, pH 6.0; biotin-FcRn on CAP chip, antibody analyte; bivalent fit, apparent KD; SD 10 nM
[5] = molecular target: biotinylated recombinant human FcRn (human) (UniProt P55899); assay: SPR Biacore T200, pH 7.4; steady-state RU at 1000 nM antibody; SD 5.4 RU
[6] = molecular target: Recombinant human HPC4-tagged FcγRIIIa-V158 (human) (UniProt P08637); assay: SPR Biacore T200; receptor captured by anti-HPC4, antibody analyte; steady-state RU
[7] = molecular target: Recombinant human FcγRIIIa-V158 (human) (UniProt P08637); assay: SPR Biacore T200
[8] = molecular target: FcγRIIIa (V158) expressed on engineered Jurkat effector cells (UniProt P08637); assay: cell-based or functional assay
[9] = molecular target: Recombinant human FcγRIIIa-V158 (human) (UniProt P08637); assay: SPR Biacore T200; antibody on Protein A, FcγRIIIa-V158 analyte; 1:1 fit; remark: listed apart in the source
[10] = molecular target: Recombinant human FcγRIIIa-V158 (human) (UniProt P08637); assay: SPR Biacore T200; antibody on protein A, FcγRIIIa-V158 analyte; 1:1 kinetic fit
[11] = molecular target: biotinylated recombinant human FcRn (human) (UniProt P55899); assay: SPR Biacore T200, pH 6.0; biotin-FcRn on CAP chip, antibody analyte; bivalent fit, apparent KD; SD 47 nM
[12] = molecular target: biotinylated recombinant human FcRn (human) (UniProt P55899); assay: SPR Biacore T200, pH 7.4; steady-state RU at 1000 nM antibody; SD 5.6 RU
[13] = molecular target: biotinylated recombinant human FcRn (human) (UniProt P55899); assay: SPR Biacore T200, pH 6.0; biotin-FcRn on CAP chip, antibody analyte; bivalent fit, apparent KD; SD 240 nM
[14] = molecular target: biotinylated recombinant human FcRn (human) (UniProt P55899); assay: SPR Biacore T200, pH 7.4; steady-state RU at 1000 nM antibody; SD 0.2 RU
[15] = molecular target: biotinylated recombinant human FcRn (human) (UniProt P55899); assay: SPR Biacore T200, pH 6.0; biotin-FcRn on CAP chip, antibody analyte; bivalent fit, apparent KD; SD 260 nM
[16] = molecular target: biotinylated recombinant human FcRn (human) (UniProt P55899); assay: SPR Biacore T200, pH 7.4; steady-state RU at 1000 nM antibody; SD 3.3 RU
[17] = molecular target: biotinylated recombinant human FcRn (human) (UniProt P55899); assay: SPR Biacore T200, pH 6.0; biotin-FcRn on CAP chip, antibody analyte; bivalent fit, apparent KD; SD 700 nM
[18] = molecular target: biotinylated recombinant human FcRn (human) (UniProt P55899); assay: SPR Biacore T200, pH 7.4; steady-state RU at 1000 nM antibody; SD 2.1 RU

Substance: WT antibody specific for protein 1 containing oligomannose (human IgG1)
Kd [2]: 256 nM
koff [2]: 0.017 s⁻¹
kon [2]: 70000 M⁻¹ s⁻¹

Substance: LS antibody specific for protein 3, with kifunensine
pH of elution [3]: 7.81 pH
Kd [4]: 658 nM
RU (steady state, pH 7.4) [5]: 16.6 RU
Fold Change (Kifunensine Treated vs Untreated) in FcγRIIIa Binding Affinity [6]: 1.75 fold
Fold Change versus WT in FcγRIIIa Binding Affinity with Kifunensine Treatment [6]: 1.85 fold

Substance: afucosylated DE (S239D/I332E) antibody specific for protein 1 (human IgG1)
fold increase in receptor binding compared to DE antibody [7]: 3.5 fold
ADCC activity (ADCC reporter gene assay), fold vs DE antibody without modification [8]: 3.2 fold
Kd [9]: 4 nM
koff [9]: 0.003 s⁻¹
kon [9]: 750000 M⁻¹ s⁻¹

Substance: LS antibody specific for protein 3, without kifunensine
Kd [11]: 534 nM
pH of elution [3]: 7.84 pH
RU (steady state, pH 7.4) [12]: 19.4 RU

Substance: WT antibody specific for protein 1 (human monoclonal IgG1, mAb A)
Kd [2]: 540 nM
koff [2]: 0.031 s⁻¹
kon [2]: 60000 M⁻¹ s⁻¹
Kd [9]: 557 nM
koff [9]: 0.107 s⁻¹
kon [9]: 190000 M⁻¹ s⁻¹

Substance: Fc fragment S298A, no kifunensine (from UniProt P01857 104-330)
Kd [1]: 230 nM

Substance: WT antibody specific for protein 3, without kifunensine
pH of elution [3]: 7.07 pH
Kd [13]: 2000 nM
RU (steady state, pH 7.4) [14]: 0.8 RU

Substance: DE (S239D/I332E) antibody specific for protein 1 (human IgG1)
Kd [2]: 14 nM
koff [2]: 0.006 s⁻¹

Substance: YTE antibody specific for protein 3, with kifunensine
pH of elution [3]: 7.68 pH
Kd [13]: 1210 nM
Fold Change (Kifunensine Treated vs Untreated) in FcγRIIIa Binding Affinity [6]: 2.88 fold
Fold Change versus WT in FcγRIIIa Binding Affinity with Kifunensine Treatment [6]: 1.26 fold
RU (steady state, pH 7.4) [18]: 9 RU

Now from value to substance:

Kd [1]: 24 nM
Substance: Fc fragment S298C, with kifunensine (from UniProt P01857 104-330)

fold higher affinity than the unmodified DE antibody [7]: 2.3 fold
Kd [2]: 6 nM
koff [2]: 0.002 s⁻¹
kon [2]: 400000 M⁻¹ s⁻¹
ADCC activity (ADCC reporter gene assay), fold vs DE antibody without modification [8]: 1.4 fold
Substance: DE (S239D/I332E) antibody specific for protein 1 containing oligomannose (human IgG1)

Fold KD WT [10]: 31 fold
Kd [10]: 3.79 nM
koff [10]: 0.00832 s⁻¹
kon [10]: 2.2e+06 M⁻¹ s⁻¹
Substance: DE (R292C/V302C) antibody specific for protein 5 (TPP-35708)

Kd [1]: 86 nM
Substance: Fc fragment S298C, no kifunensine (from UniProt P01857 104-330)

Kd [1]: 21 nM
Substance: Fc fragment S298A, with kifunensine (from UniProt P01857 104-330)

Kd [10]: 118 nM
Substance: WT antibody specific for protein 5 (TPP-23424)

Fold KD WT [10]: 8 fold
Kd [10]: 14.9 nM
koff [10]: 0.00925 s⁻¹
kon [10]: 622000 M⁻¹ s⁻¹
Substance: afucosylated antibody specific for protein 5 (Creative Biolabs)

pH of elution [3]: 7.74 pH
Kd [15]: 1270 nM
RU (steady state, pH 7.4) [16]: 10.7 RU
Substance: YTE antibody specific for protein 3, without kifunensine

pH of elution [3]: 7.01 pH
Kd [17]: 3040 nM
RU (steady state, pH 7.4) [14]: 0.5 RU
Fold Change (Kifunensine Treated vs Untreated) in FcγRIIIa Binding Affinity [6]: 1.76 fold
Fold Change versus WT in FcγRIIIa Binding Affinity with Kifunensine Treatment [6]: 1.76 fold
Substance: WT antibody specific for protein 3, with kifunensine

fold higher affinity than the unmodified DE antibody [7]: 1.8 fold
Kd [2]: 8 nM
koff [2]: 0.004 s⁻¹
kon [2]: 480000 M⁻¹ s⁻¹
Substance: hypergalactosylated DE (S239D/I332E) antibody specific for protein 1 (human IgG1)

Reference: patent publication US20240166750A1
